In patent publication US20160168268A1 (University of California, published 2016):

Biological target: T1, human IgE (human, UniProt P01854-1 1-428, FITC label in the BMMC experiments)
T1 construct: also called standard IgE; myeloma IgE
Test: method not stated

T1 sequence (P01854 other isoform, or with tags, fused parts or gaps): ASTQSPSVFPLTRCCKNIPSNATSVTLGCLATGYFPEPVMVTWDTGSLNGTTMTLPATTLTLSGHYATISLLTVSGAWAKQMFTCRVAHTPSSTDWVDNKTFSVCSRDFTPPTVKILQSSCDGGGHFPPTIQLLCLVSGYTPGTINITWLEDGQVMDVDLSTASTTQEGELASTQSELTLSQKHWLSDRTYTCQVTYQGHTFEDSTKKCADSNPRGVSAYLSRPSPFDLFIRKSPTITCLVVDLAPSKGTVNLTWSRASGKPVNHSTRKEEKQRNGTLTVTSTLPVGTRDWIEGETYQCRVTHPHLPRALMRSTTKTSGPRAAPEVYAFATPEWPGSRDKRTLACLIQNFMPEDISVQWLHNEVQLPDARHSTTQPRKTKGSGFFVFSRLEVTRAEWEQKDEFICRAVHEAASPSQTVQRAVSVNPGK

B1: monoclonal anti-human IgE antibody P6.2 (antibody, V domains shown)
VH: QVQLQQSGAELVRPGTSVKVSCKASGYAFTNYLIEWVKQRPGQGLEWIGVINPGSGFTKYNEKFKGKATLTADKSSSTAYMHLSSLTSDDSAVYFCAREDVYSWFAYWGQGTLVTVSA
VL: DIVLTQSPASLAVSLGQRATISCRASESVDSYGNSFMHWYQQKPGQPPKLLIYRTSNLESGIPARFSGSGSRTDFTLTINPVEADDVATYFCQQSYEDPFTFGSGTKLEIK
notes: also called mAb P6.2; mAb 6.2
  Kd: 2.54 µM
